In patent US20040248178A1 (GENERAL HOSPITAL, published 2004):

Target: the molecule itself
Assay: transmission electron microscopy after rotary shadowing (self-association)

B1: Recombinant mouse β-netrin lacking the C domain, with His tag (rβ-NΔC+His) (ligand)
chain: GLNGVAGANSRCEKACNPRMGNLALGRKLRADTMCGQNATELFCFYSENADLTCRQPKCDKCNAAHSHLAHPPSAMADSSFRFPRTWWQSAEDVHREKIQLDLEAEFYFTHLIMVFKSPRPAAMVLDRSQDFGKTWKPYKYFATNCSATFGLEDDVVKKGAICTSRYSNPFPCTGGEVIFRALSPPYDIENPYSAKVQEQLKITNLRVRLLKRQSCPCQINDLNAKPHHFMHYAVYDFIVKGSCFCNGHADQCLPVEGFRPIKAPGAFHVVHGRCMCKHNTAGSHCQHCAPLYNDRPWEAADGRTGAPNECRTCKCNGHADTCHFDVNVWEASGNRSGGVCNNCQHNTEGQHCQRCKPGFYRDLRRPFSAPDACKACSCHPVGSAILPFSSVTFCDPSNGDCPCKPGVAGPHCDRCMVGYWGFGDYGCRPCDCAGSCDPLTGDCISSNADVDWY
notes: also called rβ-NAC+His; rβ-netrin ΔC; not shown: six histidine tag followed by a thrombin cleavage site
binding result: no binding
